# Source: PMC5384083
# B1: T7 tagged FoxM1 wild type (WT) [not stated] / DNMT3b, endogenous [human (endogenous in MCF7 and MDA-MB-453)] (parent)
# chain 1: MKTSPRRPLILKRRRLPLPVQNAPSETSEEEPKRSPAQQESNQAEASKEVAESNSCKFPAGIKIINHPTMPNTQVVAIPNNANIHSIITALTAKGKESGSSGPNKFILISCGGAPTQPPGLRPQTQTSYDAKRTEVTLETLGPKPAARDVNLPRPPGALCEQKRETCADGEAAGCTINNSLSNIQWLRKMSSDGLGSRSIKQEMEEKENCHLEQRQVKVEEPSRPSASWQNSVSERPPYSYMAMIQFAINSTERKRMTLKDIYTWIEDHFPYFKHIAKPGWKNSIRHNLSLHDMFVRETSANGKVSFWTIHPSANRYLTLDQVFKQQKRPNPELRRNMTIKTELPLGARRKMKPLLPRVSSYLVPIQFPVNQSLVLQPSVKVPLPLAASLMSSELARHSKRVRIAPKVLLAEEGIAPLSSAGPGKEEKLLFGEGFSPLLPVQTIKEEEIQPGEEMPHLARPIKVESPPLEEWPSPAPSFKEESSHSWEDSSQSPTPRPKKSYSGLRSPTRCVSEMLVIQHRERRERSRSRRKQHLLPPCVDEPELLFSEGPSTSRWAAELPFPADSSDPASQLSYSQEVGGPFKTPIKETLPISSTPSKSVLPRTPESWRLTPPAKVGGLDFSPVQTSQGASDPLPDPLGLMDLSTTPLQSAPPLESPQRLLSSEPLDLISVPFGNSSPSDIDVPKPGSPEPQVSGLAANRSLTEGLVLDTMNDSLSKILLDISFPGLDEDPLGPDNINWSQFIPELQ
# chain 2: not shown
# B2: T7 tagged FoxM1 wild type (WT) [not stated] / Retinoblastoma protein (Rb), endogenous [human (endogenous in MCF7 and MDA-MB-453)] (parent)
# chain 1: B1 chain 1
# chain 2: MPPKTPRKTAATAAAAAAEPPAPPPPPPPEEDPEQDSGPEDLPLVRLEFEETEEPDFTALCQKLKIPDHVRERAWLTWEKVSSVDGVLGGYIQKKKELWGICIFIAAVDLDEMSFTFTELQKNIEISVHKFFNLLKEIDTSTKVDNAMSRLLKKYDVLFALFSKLERTCELIYLTQPSSSISTEINSALVLKVSWITFLLAKGEVLQMEDDLVISFQLMLCVLDYFIKLSPPMLLKEPYKTAVIPINGSPRTPRRGQNRSARIAKQLENDTRIIEVLCKEHECNIDEVKNVYFKNFIPFMNSLGLVTSNGLPEVENLSKRYEEIYLKNKDLDARLFLDHDKTLQTDSIDSFETQRTPRKSNLDEEVNVIPPHTPVRTVMNTIQQLMMILNSASDQPSENLISYFNNCTVNPKESILKRVKDIGYIFKEKFAKAVGQGCVEIGSQRYKLGVRLYYRVMESMLKSEEERLSIQNFSKLLNDNIFHMSLLACALEVVMATYSRSTSQNLDSGTDLSFPWILNVLNLKAFDFYKVIESFIKAEGNLTREMIKHLERCEHRIMESLAWLSDSPLFDLIKQSKDREGPTDHLESACPLNLPLQNNHTAADMYLSPVRSPKKKGSTTRVNSTANAETQATSAFQTQKPLKSTSLSLFYKKVYRLAYLRLNTLCERLLSEHPELEHIIWTLFQHTLQNEYELMRDRHLDQIMMCSMYGICKVKNIDLKFKIIVTAYKDLPHAVQETFKRVLIKEEEYDSIIVFYNSVFMQRLKTNILQYASTRPPTLSPIPHIPRSPYKFPSSPLRIPGGNIYISPLKSPYKISEGLPTPTKMTPRSRILVSIGESFGTSEKFQKINQMVCNSDRVLKRSAEGSNPPKPLKKLRFDIEGSDEADGSKHLPGESKFQQKLAEMTSTRTRMQKQKMNDSMDTSNKEEK
# Variants of: B1
# Test: co-immunoprecipitation (IP T7, western blot DNMT3b), band intensity given
# Details: with DNMT3b, MDA-MB-453 cells
row,response,Variant
1,132,chain 1 T596A
2,10,chain 1 S715D S724D

# Variants of: B2
# Test: co-immunoprecipitation (IP T7, western blot Rb), band intensity given
# Details: with Retinoblastoma protein (Rb), MDA-MB-453 cells, cell lysates (800 ug)
row,response,Variant
1,22.8,chain 1 T596A
2,0.09,chain 1 S715D S724D
